Results reported in patent publication US20040214992A1, “Mutation induced optimization of receptor signal to noise ratio” (priority 2001, published 2004).

Key:
CCR-3 receptor [1] = molecular target: T1, CCR-3 receptor (Homo sapiens, UniProt P51677, Y235E); experiment: SRE-Luc + Gq5i luciferase reporter assay, wild-type or mutant CCR-3 receptor; type: cell-based; conditions: basal activity of mutant vs wild-type
T1 construct: expressed in transfected cells; host or cells: HEK293 (inferred: assay 'as described above for the serotonin 2A receptor')
T1 sequence (P51677 1-355 Y235E): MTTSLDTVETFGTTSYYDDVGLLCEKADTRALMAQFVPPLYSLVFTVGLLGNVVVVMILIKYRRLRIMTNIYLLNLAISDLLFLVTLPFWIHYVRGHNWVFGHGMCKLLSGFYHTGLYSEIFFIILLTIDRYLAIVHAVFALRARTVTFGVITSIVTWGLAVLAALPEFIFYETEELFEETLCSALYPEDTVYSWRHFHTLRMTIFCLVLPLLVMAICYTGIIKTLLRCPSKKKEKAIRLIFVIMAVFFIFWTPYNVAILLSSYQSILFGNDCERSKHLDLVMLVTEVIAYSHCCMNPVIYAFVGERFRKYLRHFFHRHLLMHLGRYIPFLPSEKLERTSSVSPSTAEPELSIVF
Source text: (§1) Alternatively, Gαi coupling can also be measured using a positive assay (i.e., one that yields an increase in activity upon receptor activation), instead of a negative assay (i.e., one that yields a decrease in activity upon receptor activation). This assay provides a more detectable output signal and less interassay variation. In one such assay, a chimeric G protein (Gq5i, Broach and Thomer, Nature 384 (Suppl.):14-16 (1996)) that contains the entire Gαq protein having the five C-terminal amino acids from Gαi attached to the C-terminus of Gαq is used. This chimeric G protein is recognized as Gαi by Gαi coupled receptors, but switches the receptor induced signaling from Gαi to Gαq. This allows Gαi receptor coupling to be detected using a positive assay by use of a Gαq responsive SMS-Luc or SRE-Luc construct (Stratagene, La Jolla, Calif.). SMS and SRE preferably respond to Gαq mediated inositol and calcium production. Moreover, detection can be carried out in the absence of forskolin pre-stimulation of cells.
(§2) The basal activity of the Tyr235Glu mutant CCR-3 receptor was assessed using a luciferase assay. The CCR-3 receptor is a Gαi coupled receptor. Therefore, we chose to use the SRE-Luc+Gq5i reporter system, described in detail above (Broach and Thorner, supra), which switches the signaling pathway from Gαi to Gαq for reliable positive readout. The luciferase assay was carried out as described above for the serotonin 2A receptor.

CCR-3 receptor [2] = experiment: as above; type: cell-based, human; conditions: luciferase activity; for Ligand-stimulated Activity / Basal Activity: average of 5 experiments; for Basal Activity: no ligand
Source text: as §1, §2

| Molecule | basal activity compared to wild-type receptor (in words) (CCR-3 receptor [1]) | Stimulated/Basal Ratio (CCR-3 receptor [2]) | Ligand-stimulated Activity (CCR-3 receptor [2]) | Basal Activity (CCR-3 receptor [2]) |
| --- | --- | --- | --- | --- |
| Lys323Glu CCR-3: silenced mutant CCR-3 receptor with Tyr to Glu substitution at position 235 of SEQ ID NO: 2 (protein, UniProt P51677 1-355, looked up, variant Y235E) C-C chemokine receptor type 3: MTTSLDTVETFGTTSYYDDVGLLCEKADTRALMAQFVPPLYSLVFTVGLLGNVVVVMILIKYRRLRIMTNIYLLNLAISDLLFLVTLPFWIHYVRGHNWVFGHGMCKLLSGFYHTGLYSEIFFIILLTIDRYLAIVHAVFALRARTVTFGVITSIVTWGLAVLAALPEFIFYETEELFEETLCSALYPEDTVYSWRHFHTLRMTIFCLVLPLLVMAICYTGIIKTLLRCPSKKKEKAIRLIFVIMAVFFIFWTPYNVAILLSSYQSILFGNDCERSKHLDLVMLVTEVIAYSHCCMNPVIYAFVGERFRKYLRHFFHRHLLMHLGRYIPFLPSEKLERTSSVSPSTAEPELSIVF | decrease in basal activity | 12 | 151,445 | 12,626 |
| wild-type CCR-3: wild-type CC chemokine receptor 3 (CCR-3), G protein-coupled receptor, SEQ ID NO: 2 (protein, UniProt P51677 1-355, looked up) C-C chemokine receptor type 3: MTTSLDTVETFGTTSYYDDVGLLCEKADTRALMAQFVPPLYSLVFTVGLLGNVVVVMILIKYRRLRIMTNIYLLNLAISDLLFLVTLPFWIHYVRGHNWVFGHGMCKLLSGFYHTGLYSEIFFIILLTIDRYLAIVHAVFALRARTVTFGVITSIVTWGLAVLAALPEFIFYETEELFEETLCSALYPEDTVYSWRHFHTLRMTIFCLVLPLLVMAICYTGIIKTLLRCPSKKKYKAIRLIFVIMAVFFIFWTPYNVAILLSSYQSILFGNDCERSKHLDLVMLVTEVIAYSHCCMNPVIYAFVGERFRKYLRHFFHRHLLMHLGRYIPFLPSEKLERTSSVSPSTAEPELSIVF |  | 4.7 | 157,389 | 33,177 |
